Measurements published in US20100022445A1 (BAXALTA, published 2010).
*1 amine or outer side, *2 acyl side, *3 side chain or, on linkers, in order; H or OH if unused. Where no end group is shown, it is not given here. [ ]: non-standard residue; d: D form. NH(CH2)3(OCH2CH2)2O(CH2)3NH = C(CN[*:1])COCCOCCOCCCN[*:2]

Experiments:
human plasma = assay: equilibrium dialysis (HTD-96, 12-14 kD cut-off), 5 µM A01 in undiluted human plasma, 6 h at 37 °C, LC/MS/MS
mouse plasma = assay: equilibrium dialysis (HTD-96, 12-14 kD cut-off), 5 µM A01 in undiluted mouse plasma, 6 h at 37 °C, LC/MS/MS
HERG channel = HERG channel (UniProt Q12809 1-1159, limits assumed); assay: cell-based or functional assay
Chain of HERG channel (Q12809 whole entry): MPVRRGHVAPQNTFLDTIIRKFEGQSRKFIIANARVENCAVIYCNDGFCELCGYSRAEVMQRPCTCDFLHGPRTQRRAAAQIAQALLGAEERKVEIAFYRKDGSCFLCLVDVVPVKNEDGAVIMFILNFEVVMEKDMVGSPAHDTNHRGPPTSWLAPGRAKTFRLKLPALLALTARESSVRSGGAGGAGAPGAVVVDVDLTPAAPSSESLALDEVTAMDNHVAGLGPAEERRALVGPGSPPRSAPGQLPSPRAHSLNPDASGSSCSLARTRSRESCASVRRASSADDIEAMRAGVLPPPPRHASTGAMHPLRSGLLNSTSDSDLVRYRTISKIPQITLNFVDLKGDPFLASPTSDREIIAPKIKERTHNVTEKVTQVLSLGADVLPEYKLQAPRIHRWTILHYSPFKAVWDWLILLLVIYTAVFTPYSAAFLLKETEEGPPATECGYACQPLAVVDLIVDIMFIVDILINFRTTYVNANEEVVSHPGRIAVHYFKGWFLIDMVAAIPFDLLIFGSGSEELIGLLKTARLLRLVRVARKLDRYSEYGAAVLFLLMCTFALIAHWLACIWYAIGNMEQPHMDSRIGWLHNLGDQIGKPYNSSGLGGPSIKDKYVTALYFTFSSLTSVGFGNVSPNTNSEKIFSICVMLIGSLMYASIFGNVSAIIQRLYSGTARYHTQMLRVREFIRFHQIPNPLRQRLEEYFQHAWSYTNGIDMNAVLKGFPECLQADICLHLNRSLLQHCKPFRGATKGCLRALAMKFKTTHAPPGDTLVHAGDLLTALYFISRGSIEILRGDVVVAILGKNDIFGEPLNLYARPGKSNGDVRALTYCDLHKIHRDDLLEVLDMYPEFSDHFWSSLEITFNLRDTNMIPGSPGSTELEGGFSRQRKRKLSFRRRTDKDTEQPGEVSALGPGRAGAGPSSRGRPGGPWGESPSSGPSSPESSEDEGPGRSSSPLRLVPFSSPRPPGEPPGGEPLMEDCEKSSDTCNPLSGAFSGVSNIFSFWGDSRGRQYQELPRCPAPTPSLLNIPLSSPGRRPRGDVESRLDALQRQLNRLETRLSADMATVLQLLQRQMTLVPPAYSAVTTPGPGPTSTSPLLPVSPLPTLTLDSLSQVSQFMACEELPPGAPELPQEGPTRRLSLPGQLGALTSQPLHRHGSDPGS

| Binder | HERG inhibition patch-clamp (% Inhibition of Tail Current at 1 µM) (HERG channel) [%] | HERG inhibition Rb+ efflux (% Inhibition at 10 µM) (HERG channel) [%] | also measured |
| --- | --- | --- | --- |
| Ac-RMKFDVWDLYFEIVW-NH2 [A01 (Ac-…-NH2)] | – | – | Average % Bound (human plasma): > 98.3%; Average % Bound (mouse plasma): > 99.2% |
| Ac-RMKFDVWDLYFEIVW-NH2 [A01 (Ac-RMKFDVWDLYFEIVW-NH2)] | 16.5 | – | – |
| Ac-WDLYFEIVW-NH2 [A05 (Ac-WDLYFEIVW-NH2)] | 14.5 | – | – |
| Ac-[dC][dI][dM][dF][dW][dY][dD][dE][dY][dE]-NH2 (SMILES CC[C@@H](C)[C@@H](NC(=O)[C@@H](CS)NC(C)=O)C(=O)N[C@H](CCSC)C(=O)N[C@H](Cc1ccccc1)C(=O)N[C@H](Cc1c[nH]c2ccccc12)C(=O)N[C@H](Cc1ccc(O)cc1)C(=O)N[C@H](CC(=O)O)C(=O)N[C@H](CCC(=O)O)C(=O)N[C@H](Cc1ccc(O)cc1)C(=O)N[C@H](CCC(=O)O)C(N)=O) [B03 (Ac-cimfwydeye-NH2)] | 84.5 | -2.1 | – |
| PEG5000-RMKFDVWDLYFEIVW-NH2 [A16 (PEG5000-RMKFDVWDLYFEIVW-NH2)] | 22.2 | – | – |
| Ac-PMKFDVWDLYFEIVW-NH2 [A02 (Ac-PMKFDVWDLYFEIVW-NH2)] | – | -3.3 | – |
| Ac-WDLYFEIVWE [A06 (Ac-WDLYFEIVWE)] | – | -6.4 | – |
| Ac-WDLYFEIVW[NH(CH2)3(OCH2CH2)2O(CH2)3NH]E [A07 (Ac-WDLYFEIVW-ttds-E)] | – | -3.4 | – |
| ERMEFDVWDLYFEIVW-NH2 [A09 (ERMEFDVWDLYFEIVW-NH2)] | – | -1.6 | – |
